Experiment [1] deals with T1, cynomolgus (Macaca fascicularis) ST2L extracellular domain with C-terminal His6 tag (Macaca fascicularis (cynomolgus), UniProt Q01638 19-321 (human entry)).
T1 construct: also called cyno ST2L-ECD; cynoST2L-ECD
T1 chain: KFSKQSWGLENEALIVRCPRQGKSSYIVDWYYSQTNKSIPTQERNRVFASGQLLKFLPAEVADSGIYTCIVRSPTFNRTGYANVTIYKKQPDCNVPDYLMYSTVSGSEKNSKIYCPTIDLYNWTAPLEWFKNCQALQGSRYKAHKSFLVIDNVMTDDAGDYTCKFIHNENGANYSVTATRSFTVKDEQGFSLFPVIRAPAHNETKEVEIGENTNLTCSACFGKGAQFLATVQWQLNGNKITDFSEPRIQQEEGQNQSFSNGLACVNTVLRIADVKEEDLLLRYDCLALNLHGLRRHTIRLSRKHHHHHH
In words: SPR, mAb captured, ST2L-ECD in solution. A general note: Surface plasmon resonance follows binding to a sensor surface in real time, without labels.

Experiment [2] addresses T2, human ST2L extracellular domain with C-terminal His6 tag (human, UniProt Q01638 19-328).
T2 construct: also called huST2L-ECD; ST2L-ECD
T2 sequence: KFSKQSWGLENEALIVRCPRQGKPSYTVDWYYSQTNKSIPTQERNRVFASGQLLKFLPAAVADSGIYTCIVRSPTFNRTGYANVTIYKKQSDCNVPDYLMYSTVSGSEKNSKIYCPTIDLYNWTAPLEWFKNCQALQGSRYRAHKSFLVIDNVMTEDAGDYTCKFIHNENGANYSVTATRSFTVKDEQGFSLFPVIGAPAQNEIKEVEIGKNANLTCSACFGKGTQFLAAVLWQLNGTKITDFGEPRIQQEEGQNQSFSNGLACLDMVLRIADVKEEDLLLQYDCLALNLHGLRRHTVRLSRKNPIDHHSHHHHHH
Nature of the experiment: SPR, mAb captured, ST2L-ECD in solution.

The target of experiment [3] is T3, mouse ST2L extracellular domain (mouse, UniProt P14719 28-326).
T3 construct: also called mouse ST2L-ECD; muST2L-ECD
T3 sequence: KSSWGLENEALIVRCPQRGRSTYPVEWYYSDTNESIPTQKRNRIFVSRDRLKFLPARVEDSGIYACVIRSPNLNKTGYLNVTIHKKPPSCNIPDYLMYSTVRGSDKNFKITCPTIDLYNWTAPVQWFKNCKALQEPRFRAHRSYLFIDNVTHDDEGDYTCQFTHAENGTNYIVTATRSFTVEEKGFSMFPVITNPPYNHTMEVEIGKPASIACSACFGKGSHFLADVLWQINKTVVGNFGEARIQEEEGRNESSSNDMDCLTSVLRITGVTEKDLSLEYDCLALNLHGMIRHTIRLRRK
Nature of the experiment: domain binding assay. The procedure:
Antibody binding to ST2L domain I, II and III was determined using standard capture ELISA assay using electrochemiluminescent detection format (Meso-Scale Discovery (MSD) technology). 10 μg/mL of each antibody was coated onto each well of an MSD HighBind plate (5 μL/well) for 2 hr at room temperature. […] The plate was covered with aluminum foil and incubated for 1 hr at room temperature with gentle shaking. The plate was then washed 3 times with HEPES wash buffer. MSD read buffer (150 μl) was added to each well, and the plate was then read using an MSD Sector Imager 6000.

Experiment [4] has as its target T2, human ST2L extracellular domain with …. In words: MSD competition on coated ST2L-ECD; 30 nM sulfo-tag labeled C2244 Fab displaced by unlabeled competitor. The protocol:
Competition binding assays were performed to evaluate different binding epitope groups for anti-ST2L mAbs. 5 μl (10 μg/ml) of ST2L-ECD protein was coated on MSD HighBind plate (Meso Scale Discovery, Gaithersburg, Md.) per well for 2 hr at room temperature. One-hundred and fifty microliters of 5% MSD Blocker A buffer (Meso Scale Discovery, Gaithersburg, Md.) was added to each well and incubated for 2 hr at room temperature. Plates were washed three times with 0.1 M HEPES buffer, pH 7.4, followed by the addition of the mixture of the MSD fluorescence dye (sulfo tag, NHS ester) labeled individual anti-ST2L antibody with different competitors. Labeled antibody, 10 or 30 nM, was incubated with increasing concentrations of competitor antibodies, from 1 nM to 2 or 5 μM, and then added to the designated wells in a volume of 25 μL mixture. After 2-hour incubation with gentle shaking at room temperature, plates were washed 3 times with 0.1M HEPES buffer (pH 7.4). MSD Read Buffer T was diluted with distilled water (4-fold) and dispensed at a volume of 150 μL/well and analyzed with a SECTOR Imager 6000.

Experiment [5] shares this target. Nature of the experiment: assayed for binding to human ST2L, method not detailed.
Experiment [6] deals with T4, human ST2L, full length, on cells (human, UniProt Q01638 19-556).
T4 sequence: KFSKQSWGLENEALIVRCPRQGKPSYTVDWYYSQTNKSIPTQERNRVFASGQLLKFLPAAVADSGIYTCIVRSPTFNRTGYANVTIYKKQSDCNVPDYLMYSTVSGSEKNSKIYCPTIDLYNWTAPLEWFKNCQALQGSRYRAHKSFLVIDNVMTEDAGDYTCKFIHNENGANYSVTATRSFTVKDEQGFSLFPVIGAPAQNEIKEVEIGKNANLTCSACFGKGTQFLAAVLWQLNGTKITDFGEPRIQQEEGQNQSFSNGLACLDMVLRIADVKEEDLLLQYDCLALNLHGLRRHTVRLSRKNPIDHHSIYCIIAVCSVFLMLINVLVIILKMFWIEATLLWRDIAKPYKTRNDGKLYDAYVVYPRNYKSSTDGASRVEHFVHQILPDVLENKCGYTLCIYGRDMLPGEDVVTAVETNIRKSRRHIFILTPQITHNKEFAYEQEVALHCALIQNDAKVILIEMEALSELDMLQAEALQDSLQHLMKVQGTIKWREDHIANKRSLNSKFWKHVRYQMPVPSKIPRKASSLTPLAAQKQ
Nature of the experiment: cell-based or functional assay.

Experiment [7] has as its target T2, human ST2L extracellular domain with …. In words: RLB ELISA: biotinylated IL-33 on coated huST2L-ECD, antibody titrated; tested as a hybridoma.
Experiment [8] deals with T1, cynomolgus (Macaca fascicularis) ST2L …. Nature of the experiment: ProteOn SPR, mAb captured, ST2L-ECD in solution. The procedure: (§1) The affinities were analyzed by ProteOn. The experiments were performed at 25° C. using ProteOn's PBS-T-E buffer (PBS, 0.005% P20 and 3 mM EDTA) as running buffer. […] Mab capture was followed by injection of ST2L-ECD from 0.024-15 nM (5-fold dilutions) for 4 min (200 μL at 50 μL/min). The dissociation was monitored for 30 minutes for all reaction. Regeneration was performed using two 15 sec pulses of 10 mM glycine pH1.5. The data was fitted to a 1:1 with baseline drift model.
(§2) Association rates for the samples are fast, the langmuir with mass transfer model was used for curve fitting and estimation of Affinity. All of the samples had faster off rates than the parental clone and control Mab. The difference in off rate was the primary contributor to the lower affinity of the HFA variants when compared to the parent antibody.

Experiment [9] addresses T2, human ST2L extracellular domain with …. In words: ProteOn SPR, mAb captured, ST2L-ECD in solution. The procedure:
as §1, §2

Experiment [10] shares this target. Nature of the experiment: Fab binding to ST2L, method not detailed; parent C2494 Fab, without the D101aA substitution.
For experiment [11] the target is unchanged. In words: Fab binding to ST2L, method not detailed.

B1: ST2M49 (antibody, V domains shown)
VH: EVQLVQSGAEVKKPGESLKISCKGSGYSFTSYWIGWVRQMPGKGLEWMGIIYPGDSYTRYSPSFQGQVTISADKSISTAYLQWSSLKASDTAMYYCARIGGMFDYWGQGTLVTVSS
VL: EIVLTQSPATLSLSPGERATLSCRASQSVANALAWYQQKPGQAPRLLIYKASNRATGIPARFSGSGSGTDFTLTISSLEPEDFAVYYCQQYYGWPITFGQGTKVEIK
notes: Phage-derived Fab converted to IgG
In experiment [1], B1 returned a Kd of 0.266 nM, a koff of 0.0124 s⁻¹ and a kon of 4.66e+07 M⁻¹ s⁻¹. In [2], this molecule gave a Kd of 0.101 nM, a koff of 0.000161 s⁻¹ and a kon of 1.59e+06 M⁻¹ s⁻¹. Moreover, the binding result in [3] is reported as “binds”.

B2: STLM15 (antibody, human IgG2, V domains shown)
VH: EVQLQESGPGLVKPSQSLSLTCTVTGFSITSDYAWNWIRQFPGSKLEWMGFISYSGDTSFNPSLKSRISVTRDTSKNQFFLQLNSVTTEDTATYYCASYDGYSFDYWGQGTTLTVSS
VL: DIVLTQSPASLAISLGQRATISCRASKSVSTSGSSYMFWYQQKPGQPPKLLIYLASNLESGVPARFSGSGSGTDFTLNIHPVEEEDAAAYYCQHSREIPYTFGGGTKLEIK
notes: Mouse hybridoma C2244 cloned into human IgG2 background (STLM15); also called C2244
With B2, the “IC50 (read off the curve)” value in [4] is roughly 90 nM. In experiment [1], this molecule yielded a Kd of 0.011 nM, a koff of 5.3e-05 s⁻¹ and an association rate constant (kon) of 4.81e+06 M⁻¹ s⁻¹. In experiment [2], the Kd is 0.042 nM, the off-rate (koff) was found to be 4.25e-05 s⁻¹ and the on-rate constant (kon) was found to be 1.02e+06 M⁻¹ s⁻¹.

B3: STLM189 (antibody, V domains shown)
VH: QVQLVQSGAEVKKPGASVKVSCKVSAFNIKDDYMHWVRQAPGKGLEWMGRIDPAIGNTEYAPKFQDRVTMTEDTSTDTAYMELSSLRSEDTAVYYCATGDFYAMDYWGQGTLVTVSS
VL: EIVMTQSPATLSVSPGERATLSCITNTDIDDVIHWYQQKPGQAPRLLIYEGNTLRPGIPARFSGSGSGTEFTLTISSLQSEDFAVYYCLQSDNMLTFGQGTKLEIK
notes: C2494 HFA mAb: VH STLH195 + VL STLL278 (L2)
For the molecule B3, in [5], the binding result is listed as “binds”.

B4: ST2M51 (antibody, V domains shown)
VH: QVQLVQSGAEVKKPGSSVKVSCKASGGTFSSYAISWVRQAPGQGLEWMGGIIPIFGTANYAQKFQGRVTITADESTSTAYMELSSLRSEDTAVYYCARDTPQLDYWGQGTLVTVSS
VL: not shown
notes: as for B1
Turning to B4, in experiment [1], the affinity, expressed as Kd, was 0.076 nM; the koff was 0.00336 s⁻¹; the kon was determined as 4.42e+07 M⁻¹ s⁻¹. Also, in [2], the affinity, expressed as Kd, was 0.038 nM; the koff was determined as 4.87e-05 s⁻¹; the kon amounted to 1.29e+06 M⁻¹ s⁻¹. In [3], the binding result is given as “binds”.

B5: STLM62 (antibody, human IgG2, V domains shown)
VH: EVQLQQSVAELVRPGASVKLSCTASAFNIKDDYMHWVKQRPEQGLEWIGRIDPAIGNTEYAPKFQDKATMTADTSSNTAYLQLSSLTSEDTAVYYCALGDFYAMDYWGQGTSVTVSS
VL: ETTVTQSPASLSVATGEKVTIRCITNTDIDDVIHWYQQKPGEPPKLLISEGNTLRPGVPSRFSSSGYGTDFVFTIENTLSEDVADYYCLQSDNMLTFGAGTKLELK
notes: Mouse hybridoma C2494 cloned into human IgG2 background (STLM62); also called C2494
As for B5, the “IC50 (read off the curve)” value in experiment [4] was roughly 100 nM. The Kd came to 0.012 nM in [1], 0.028 nM in experiment [2], 0.0123 nM in experiment [8] and 0.00867 nM in [9]. For the same molecule, the koff worked out at 0.000539 s⁻¹ in [1], 0.000119 s⁻¹ in experiment [2], 0.000457 s⁻¹ in experiment [8] and 0.000159 s⁻¹ in experiment [9]. For the same molecule, the kon in experiment [1] was determined as 4.51e+07 M⁻¹ s⁻¹; in experiment [2], 4.26e+06 M⁻¹ s⁻¹; in experiment [8] it was 3.84e+07 M⁻¹ s⁻¹; in experiment [9] it was 1.84e+07 M⁻¹ s⁻¹. Further, the “RGA IC50” value in [6] was 0.11 µg/mL. In [7], 0.7 µg/mL corresponded to half-maximal inhibition (IC50).

B6: C2494 Fab (Fab, V domains shown)
VH: EVQLQQSVAELVRPGASVKLSCTASAFNIKDDYMHWVKQRPEQGLEWIGRIDPAIGNTEYAPKFQDKATMTADTSSNTAYLQLSSLTSEDTAVYYCALGDFYAMDYWGQGTSVTVSS
VL: ETTVTQSPASLSVATGEKVTIRCITNTDIDDVIHWYQQKPGEPPKLLISEGNTLRPGVPSRFSSSGYGTDFVFTIENTLSEDVADYYCLQSDNMLTFGAGTKLELK
For the molecule B6, the koff in [10] came to 0.000143 s⁻¹.

B7: C2494 Fab with D101aA (Chothia) substitution in VH (Fab, V domains shown)
VH: EVQLQQSVAELVRPGASVKLSCTASAFNIKDDYMHWVKQRPEQGLEWIGRIDPAIGNTEYAPKFQDKATMTADTSSNTAYLQLSSLTSEDTAVYYCALGDFYAMAYWGQGTSVTVSS
VL: ETTVTQSPASLSVATGEKVTIRCITNTDIDDVIHWYQQKPGEPPKLLISEGNTLRPGVPSRFSSSGYGTDFVFTIENTLSEDVADYYCLQSDNMLTFGAGTKLELK
With B7, the “fold decrease of koff against C2494” value in experiment [11] was roughly 4 fold.

One may read the Kd as the free concentration of one partner at which half of the binding sites on the other are occupied at equilibrium, for simple one-to-one binding. As usually defined, the koff is the rate constant with which the complex falls apart. A word on the kon: it is the second-order rate constant of association. A lower kon goes with slow association. A word on the IC50: it is the concentration at which inhibition is half-maximal.

Values taken from patent US20170066831A1 (Janssen / Centocor, published 2017).
